What was measured:
PfuGRHPR [1] = molecular target: T1, PfuGRHPR (Pyrococcus furiosus, UniProt Q8U3Y2); assay: crystal structure […] Å; format: binding
T1 construct: gene gyaR; synthetic codon-optimised gene in pET41c, E. coli BL21(DE3)-RIL; no tag mentioned; heat step 85 °C, Resource Q, Superose 12; 66 kDa homodimer
T1 sequence (Q8U3Y2 1-336): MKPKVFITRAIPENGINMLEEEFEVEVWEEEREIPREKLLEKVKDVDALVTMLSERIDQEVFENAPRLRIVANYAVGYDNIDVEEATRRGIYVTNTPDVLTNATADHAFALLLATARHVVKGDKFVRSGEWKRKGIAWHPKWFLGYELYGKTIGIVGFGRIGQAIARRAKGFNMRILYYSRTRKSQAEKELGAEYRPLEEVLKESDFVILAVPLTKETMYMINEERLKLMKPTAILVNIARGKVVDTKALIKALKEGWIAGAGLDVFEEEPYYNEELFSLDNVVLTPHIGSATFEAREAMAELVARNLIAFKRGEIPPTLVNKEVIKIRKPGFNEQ

PyaGRHPR [2] = molecular target: T2, PyaGRHPR (Pyrococcus yayanosii, UniProt F8AEA4); assay: crystal structure […] Å; format: binding; settings: copurified
T2 construct: gene gyaR; synthetic codon-optimised gene in pET41c, E. coli BL21(DE3)-RIL; no tag mentioned; heat step 85 °C, Resource Q, Superose 12; 66 kDa homodimer
T2 sequence (F8AEA4 1-333): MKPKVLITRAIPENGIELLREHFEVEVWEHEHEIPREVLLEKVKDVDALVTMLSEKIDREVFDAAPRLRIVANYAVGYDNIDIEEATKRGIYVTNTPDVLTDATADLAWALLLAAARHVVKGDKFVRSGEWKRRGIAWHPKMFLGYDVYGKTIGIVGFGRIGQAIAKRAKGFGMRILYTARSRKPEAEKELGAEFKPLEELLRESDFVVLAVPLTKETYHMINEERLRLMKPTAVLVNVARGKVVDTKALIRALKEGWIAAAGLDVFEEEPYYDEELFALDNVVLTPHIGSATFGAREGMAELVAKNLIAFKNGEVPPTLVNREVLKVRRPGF

PfuGRHPR [3] = molecular target: T1, PfuGRHPR; assay: NAD(P)H absorbance at […] nm, substrate inhibition fit; format: biochemical; settings: NADH 0.5 mM, Tris-HCl 100 mM pH 8.0, 50 °C
PyaGRHPR [4] = molecular target: T2, PyaGRHPR; assay: as above; format: biochemical; settings: NADH 0.5 mM, Tris-HCl 100 mM pH 8.0, 50 °C
PhoGRHPR = molecular target: T3, PhoGRHPR (Pyrococcus horikoshii, UniProt O58320); assay: as above; format: biochemical; settings: NADH 0.5 mM, Tris-HCl 100 mM pH 8.0, 50 °C
T3 construct: gene gyaR; synthetic codon-optimised gene in pET41c, E. coli BL21(DE3)-RIL; no tag mentioned; heat step 85 °C, Resource Q, Superose 12; 66 kDa homodimer
T3 sequence (O58320 1-334): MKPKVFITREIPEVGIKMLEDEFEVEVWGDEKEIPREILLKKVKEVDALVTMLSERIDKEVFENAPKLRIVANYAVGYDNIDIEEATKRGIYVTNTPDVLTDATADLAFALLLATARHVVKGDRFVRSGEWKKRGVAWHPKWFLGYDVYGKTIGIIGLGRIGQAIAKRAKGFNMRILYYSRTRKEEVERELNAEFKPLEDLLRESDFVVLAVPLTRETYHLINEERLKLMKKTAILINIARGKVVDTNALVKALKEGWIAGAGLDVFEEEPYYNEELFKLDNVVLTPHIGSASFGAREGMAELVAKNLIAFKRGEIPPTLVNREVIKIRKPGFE

PfuGRHPR [5] = molecular target: T1, PfuGRHPR; assay: NAD(P)H absorbance at […] nm; format: biochemical; settings: co-substrate hydroxypyruvate or glyoxylate, Tris-HCl 100 mM pH 8.0, 50 °C
PyaGRHPR [6] = molecular target: T2, PyaGRHPR; assay: NAD(P)H absorbance at […] nm; format: biochemical; settings: co-substrate hydroxypyruvate or glyoxylate, Tris-HCl 100 mM pH 8.0, 50 °C
purified protein [7] = substrate: O=C(O)C(=O)CO; assay: purified protein; format: biochemical, Pyrococcus furiosus; settings: NADH 0.5 mM, Tris-HCl 100 mM pH 8.0, 50 °C
purified protein [8] = substrate: O=CC(=O)O; assay: purified protein; format: biochemical, Pyrococcus furiosus; settings: NADH 0.5 mM, Tris-HCl 100 mM pH 8.0, 50 °C
purified protein [9] = substrate: O=C(O)C(=O)CO; assay: purified protein; format: biochemical, Pyrococcus horikoshii; settings: NADH 0.5 mM, Tris-HCl 100 mM pH 8.0, 50 °C
purified protein [10] = substrate: O=CC(=O)O; assay: purified protein; format: biochemical, Pyrococcus horikoshii; settings: NADH 0.5 mM, Tris-HCl 100 mM pH 8.0, 50 °C
purified protein [11] = substrate: O=C(O)C(=O)CO; assay: purified protein; format: biochemical, Pyrococcus yayanosii; settings: NADH 0.5 mM, Tris-HCl 100 mM pH 8.0, 50 °C
purified protein [12] = substrate: O=CC(=O)O; assay: purified protein; format: biochemical, Pyrococcus yayanosii; settings: NADH 0.5 mM, Tris-HCl 100 mM pH 8.0, 50 °C

## O=CC(=O)O [glyoxylate]
PfuGRHPR [1]; ternary complex with NADP(H), ligand carried over from E. coli, active site, further molecule in tunnel
  crystal structure 1.40 Å: the determination of the PfuGRHPR structure reveals a ternary complex in the presence of glyoxylate

## O=C(O)[C@H](O)CO [D-glycerate]
PyaGRHPR [2]; ternary complex with NADP(H), active site, density did not distinguish D-glycerate from hydroxypyruvate
  crystal structure 2.0 Å: The PyaGRHPR structure contains D-glycerate, product of HPR activity

## O=C(O)C(=O)CO [hydroxypyruvate]
PfuGRHPR [3]
  PfuGRHPR / NADH: 350 ± 140 µM
PyaGRHPR [4]
  PyaGRHPR / NADH: 760 ± 200 µM
PhoGRHPR
  PhoGRHPR / NADH: 3820 ± 680 µM

## NC(=O)C1=CN([C@@H]2O[C@H](COP(=O)(O)OP(=O)(O)OC[C@H]3O[C@@H](n4cnc5c(N)ncnc54)[C@H](O)[C@@H]3O)[C@@H](O)[C@H]2O)C=CC1 [NADH]
PfuGRHPR [5]
  KM: Archaeal GRHPR presents higher affinity for NADPH compared to NADH
PyaGRHPR [6]
  KM: Archaeal GRHPR presents higher affinity for NADPH compared to NADH

## NC(=O)C1=CN([C@@H]2O[C@H](COP(=O)(O)OP(=O)(O)OC[C@H]3O[C@@H](n4cnc5c(N)ncnc54)[C@H](OP(=O)(O)O)[C@@H]3O)[C@@H](O)[C@H]2O)C=CC1 [NADPH]
PfuGRHPR [5]
  KM: Archaeal GRHPR presents higher affinity for NADPH compared to NADH
PfuGRHPR [1]; ternary complex with glyoxylate, copurified, modelled as NADP(H), oxidation state not resolved
  crystal structure 1.40 Å: Both structures include a cofactor molecule, unambiguously modeled as NADP(H)
PyaGRHPR [6]
  KM: Archaeal GRHPR presents higher affinity for NADPH compared to NADH
PyaGRHPR [2]; ternary complex with D-glycerate, modelled as NADP(H), oxidation state not resolved
  crystal structure 2.0 Å: Both structures include a cofactor molecule, unambiguously modeled as NADP(H)

B1: PfuGRHPR (Pyrococcus furiosus DSM 3638) (protein)
chain: T1 sequence (Q8U3Y2 1-336)
notes: synthetic codon-optimised gene in pET41c, E. coli BL21(DE3)-RIL; no tag mentioned; heat step 85 °C, Resource Q, Superose 12; 66 kDa homodimer
Purified protein [7]
  Km: 140 ± 55 µM
  kcat: 10 ± 5 s⁻¹
  kcat/Km: 75000 ± 50000 M⁻¹ s⁻¹
Purified protein [8]
  Km: 1800 ± 25 µM
  kcat: 13 ± 0.5 s⁻¹
  kcat/Km: 7000 ± 500 M⁻¹ s⁻¹

B2: PhoGRHPR (Pyrococcus horikoshii OT3) (protein)
chain: T3 sequence (O58320 1-334)
notes: as for B1
Purified protein [9]
  Km: 70 ± 11 µM
  kcat: 4.5 ± 0.5 s⁻¹
  kcat/Km: 65000 ± 20000 M⁻¹ s⁻¹
Purified protein [10]
  Km: 160 ± 25 µM
  kcat: 4 ± 0.5 s⁻¹
  kcat/Km: 25000 ± 5000 M⁻¹ s⁻¹

B3: PyaGRHPR (Pyrococcus yayanosii CH1) (protein)
chain: T2 sequence (F8AEA4 1-333)
notes: as for B1
Purified protein [11]
  Km: 410 ± 110 µM
  kcat: 25 ± 5 s⁻¹
  kcat/Km: 60000 ± 25000 M⁻¹ s⁻¹
Purified protein [12]
  Km: 1500 ± 140 µM
  kcat: 4.8 ± 0.2 s⁻¹
  kcat/Km: 3000 ± 500 M⁻¹ s⁻¹
